The subject of assay [1] is PB1 cell line. Nature of the assay: Ca2+ mobilization, PB1. It is filed as cell-based, human. The conditions noted are these: Fluo4-AM, FlexStation, 37 °C, pH 7.4, peak RFU, ATP 10 μM, ionomycin 1 μM, representative experiment, 3 replicates.
Experimental: (§3) Primary patient high-grade glioma (HGG) cell lines, in vitro surrogates of glioblastoma, were developed by QIMR-Berghofer Medical Research Institute (Brisbane, Australia) and represent 3 distinct GBM subtypes: SB2b and PB1 (classical), JK2 (proneural) and WK1(mesenchymal) [37], who supplied these directly for this study. GBM cell lines were cultured as adherent monolayers on matrigel (BD Biosciences)-coated flasks using StemPro NSC SFM serum free cell culture medium (Thermo Fisher Scientific) supplemented with 20 ng/ml EGF and 20 ng/ml FGFb, 1% D-glutamine and 1% of penicillin/ streptomycin (further referred as StemPro complete medium).
(§4) GBM cell lines were seeded at 38000 cells/well (SB2b) or 35,000 cells/well (PB1 and WK1) in 96-well matrigel-coated plates and incubated for 24 h at 37 °C, 5% CO2 in humidified incubator in StemPro complete medium. […] Cells were incubated at 37°C for 60 min before ligand addition and detection of Ca^2+ mobilisation in a FlexStation 3 (Molecular Devices).
Assay [2] concerns SB2b cell line. The assay can be described thus: Ca2+ mobilization, SB2b. It is filed as cell-based, human. The conditions noted are these: Fluo4-AM, FlexStation, 37 °C, pH 7.4, peak RFU, ATP 10 μM, ionomycin 1 μM, representative experiment, 3 replicates. On the technique in general: A change in cytosolic calcium serves as a functional read-out for many receptors and channels.
Experimental: as §3, §4
The subject of assay [3] is WK1 cell line. Nature of the assay: Ca2+ mobilization, WK1. The assay is classed as cell-based, human. The conditions noted are these: Fluo4-AM, FlexStation, 37 °C, pH 7.4, peak RFU, ATP 10 μM, ionomycin 1 μM, representative experiment, 3 replicates.
Experimental: as §3, §4
The test system of assay [4] is WK1 cell line. The assay can be described thus: cAMP accumulation, CTR agonists, WK1. It is filed as cell-based, human. The conditions noted are these: 1 μM forskolin. The method, then: (§1) Primary patient high-grade glioma (HGG) cell lines, in vitro surrogates of glioblastoma, were developed by QIMR-Berghofer Medical Research Institute (Brisbane, Australia) and represent 3 distinct GBM subtypes: SB2b and PB1 (classical), JK2 (proneural) and WK1(mesenchymal), who supplied these directly for this study. GBM cell lines were cultured as adherent monolayers on matrigel (BD Biosciences)-coated flasks using StemPro NSC SFM serum free cell culture medium (Thermo Fisher Scientific) supplemented with 20 ng/ml EGF and 20 ng/ml FGFb, 1% D-glutamine and 1% of penicillin/ streptomycin (further referred as StemPro complete medium). Cells were cultured in 5% CO2 / 95% humidified air at 37 °C.
GBM cell lines were seeded at 38000 cells/well (SB2b) or 35,000 cells/well (PB1, JK2 and WK1) in 96-well matrigel-coated plates and incubated for 24 h at 37°C, 5% CO2 in humidified incubator in StemPro complete medium. Media was replaced with stimulation buffer (phenol red free F12 media, 0.1% BSA, 0.5 mM IBMX, pH 7.4). […] Intracellular cAMP levels in the wells were determined using Lance Ultra cAMP assay kit (Perkin Elmer) according to the manufacturer’s instructions and detected using an Envision multilabel 2103 reader. […] Data were analysed by three-parameter logistic curve and are presented as percentage of 10^− 5 M forskolin response.
On the technique in general: Changes in cAMP serve as a functional read-out for many G protein-coupled receptors.

The target of assay [5] is T1, CTR in SB2b cell line (Homo sapiens, UniProt P30988).
T1 construct: only one of the studied cell lines expressed functional CTR; endogenous in cells; host or cells: SB2b patient-derived high-grade glioma cell line
T1 sequence (P30988 25-474): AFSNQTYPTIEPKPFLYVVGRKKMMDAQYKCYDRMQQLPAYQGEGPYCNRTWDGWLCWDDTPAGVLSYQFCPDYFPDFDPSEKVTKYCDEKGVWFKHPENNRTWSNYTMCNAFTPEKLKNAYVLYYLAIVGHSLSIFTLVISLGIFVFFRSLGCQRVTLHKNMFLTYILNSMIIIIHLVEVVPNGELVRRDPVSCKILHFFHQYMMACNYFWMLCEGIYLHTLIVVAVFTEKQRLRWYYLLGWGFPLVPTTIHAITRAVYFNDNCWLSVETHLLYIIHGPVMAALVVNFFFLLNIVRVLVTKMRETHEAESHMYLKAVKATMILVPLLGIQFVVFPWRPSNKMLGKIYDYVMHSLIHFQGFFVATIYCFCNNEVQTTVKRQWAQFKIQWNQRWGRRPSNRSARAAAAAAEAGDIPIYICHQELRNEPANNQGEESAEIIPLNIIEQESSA
Nature of the assay: cAMP accumulation, CTR agonists, SB2b. The assay is classed as cell-based. The conditions noted are these: read-out: Emax, cAMP accumulation. The method, then: as §1, with “medium).” for “medium). Cells were cultured in 5% CO2 / 95% humidified air at 37 °C.”
GBM cell lines were seeded at 38000 cells/well (SB2b) or 35,000 cells/well (PB1, JK2 and WK1) in 96-well matrigel-coated plates and incubated for 24 h at 37°C, 5% CO2 in humidified incubator in StemPro complete medium. Media was replaced with stimulation buffer (phenol red free F12 media, 0.1% BSA, 0.5 mM IBMX, pH 7.4). […] Cells were lysed (0.3% Tween 20, 5 mM Hepes, 0.1% BSA, pH 7.4) and 5 μl of cell lysate from each well was transferred to a corresponding well of 384-well optiplate. […] Data were analysed by three-parameter logistic curve and are presented as percentage of 10^− 5 M forskolin response.

The target of assay [6] is calcitonin receptor (human (endogenous in SB2b)) (UniProt P30988).
Assay [7] deals with CGRP (CLR/RAMP1) receptor (human (endogenous in PB1, JK2 and WK1)) (UniProt Q16602).
The test system of assay [8] is JK2 cell line. The assay can be described thus: cAMP accumulation, CTR agonists, JK2. The assay is classed as cell-based, human. The conditions noted are these: 1 μM antagonist. The method, then:
as §1
(§2) GBM cell lines were seeded at 38000 cells/well (SB2b) or 35,000 cells/well (PB1, JK2 and WK1) in 96-well matrigel-coated plates and incubated for 24 h at 37°C, 5% CO2 in humidified incubator in StemPro complete medium. Media was replaced with stimulation buffer (phenol red free F12 media, 0.1% BSA, 0.5 mM IBMX, pH 7.4). […] Cells were lysed (0.3% Tween 20, 5 mM Hepes, 0.1% BSA, pH 7.4) and 5 μl of cell lysate from each well was transferred to a corresponding well of 384-well optiplate. Intracellular cAMP levels in the wells were determined using Lance Ultra cAMP assay kit (Perkin Elmer) according to the manufacturer’s instructions and detected using an Envision multilabel 2103 reader. Raw RFU values were converted using a cAMP standard curve to give absolute cAMP concentrations. Data were analysed by three-parameter logistic curve and are presented as percentage of 10^− 5 M forskolin response.

In assay [9] the test system is PB1 cell line. The assay can be described thus: cAMP accumulation, CTR agonists, PB1. It is filed as cell-based, human. The conditions noted are these: 1 μM antagonist. The method, then:
as §1, §2

The target in assay [10] is CGRP (CLR/RAMP1) receptor (human (endogenous in PB1, JK2 and WK1)) (UniProt Q16602). This is another data set of the same source.

Read-outs that look alike come from different tables or passages of the source. Ends that are not written are not given here.

Chain of CGRP (CLR/RAMP1) receptor (human (endogenous in PB1, JK2 and WK1)) (Q16602 23-461, chain 1 of 2): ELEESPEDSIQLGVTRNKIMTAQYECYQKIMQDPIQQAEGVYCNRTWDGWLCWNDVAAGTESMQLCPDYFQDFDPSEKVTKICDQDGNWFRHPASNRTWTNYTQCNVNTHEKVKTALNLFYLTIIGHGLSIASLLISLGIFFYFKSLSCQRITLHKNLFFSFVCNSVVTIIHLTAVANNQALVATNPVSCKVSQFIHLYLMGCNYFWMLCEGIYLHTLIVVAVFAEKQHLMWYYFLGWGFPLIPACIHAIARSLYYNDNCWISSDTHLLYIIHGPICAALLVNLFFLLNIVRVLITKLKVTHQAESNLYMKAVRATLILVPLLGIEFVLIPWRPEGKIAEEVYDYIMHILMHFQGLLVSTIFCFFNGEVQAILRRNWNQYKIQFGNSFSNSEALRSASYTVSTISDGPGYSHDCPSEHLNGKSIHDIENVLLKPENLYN
Chain of CGRP (CLR/RAMP1) receptor (human (endogenous in PB1, JK2 and WK1)) (O60894 27-148, chain 2 of 2, further chain): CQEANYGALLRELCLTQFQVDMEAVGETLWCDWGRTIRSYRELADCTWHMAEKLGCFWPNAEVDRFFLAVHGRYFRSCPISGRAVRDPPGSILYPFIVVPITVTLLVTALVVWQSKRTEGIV

Take `Nc1ncnc2c1ncn2[C@@H]1O[C@H](COP(=O)(O)OP(=O)(O)OP(=O)(O)O)[C@@H](O)[C@H]1O` [ATP]: the “intracellular Ca2+ mobilisation response” value in assay [1], in assay [2] and in [3] was “robust response” in each case.

In the case of `C=C[C@@]1(C)CC(=O)[C@]2(O)[C@@]3(C)[C@@H](O)CCC(C)(C)[C@@H]3[C@H](O)[C@H](OC(C)=O)[C@@]2(C)O1` [forskolin], the “increase of basal cAMP” value in [4] came to 4 fold.

As a reminder, the Emax is the size of the effect at its maximum, as opposed to the concentration needed. On to `CC[C@H](C)[C@H](NC(=O)[C@H](C)NC(=O)[C@@H](NC(=O)[C@H](CCC(N)=O)NC(=O)[C@@H]1CCCN1C(=O)[C@H](Cc1ccccc1)NC(=O)[C@@H](NC(=O)[C@H](Cc1c[nH]cn1)NC(=O)[C@H](Cc1ccccc1)NC(=O)[C@H](CCCCN)NC(=O)[C@H](CC(N)=O)NC(=O)[C@H](Cc1ccccc1)NC(=O)[C@H](CC(=O)O)NC(=O)[C@H](CCC(N)=O)NC(=O)[C@@H](NC(=O)[C@H](Cc1ccc(O)cc1)NC(=O)[C@@H](NC(=O)CNC(=O)[C@H](CC(C)C)NC(=O)[C@H](CCSC)NC(=O)[C@@H]1CSSC[C@H](N)C(=O)NCC(=O)N[C@@H](CC(N)=O)C(=O)N[C@@H](CC(C)C)C(=O)N[C@@H](CO)C(=O)N[C@@H]([C@@H](C)O)C(=O)N1)[C@@H](C)O)[C@@H](C)O)[C@@H](C)O)[C@@H](C)O)C(=O)NCC(=O)N[C@H](C(=O)NCC(=O)N[C@@H](C)C(=O)N1CCC[C@H]1C(N)=O)C(C)C` [hCT, Human CT], for which the maximal response (Emax) in assay [5] stood at 43%.

On to `C[C@H](CCC(=O)O)C[C@H](C)C[C@H](C)C(=O)/C=C(\O)[C@H](C)C[C@H](C)C/C=C/[C@@H](C)[C@@H](O)[C@@H](C)[C@@H](O)C[C@@H]1CC[C@@](C)([C@H]2CC[C@@](C)([C@@H](C)O)O2)O1` [ionomycin], for which the “intracellular Ca2+ mobilisation response” value in [1], in assay [2] and in assay [3] was “robust response” each time.

With `CC(C)C[C@H](NC(=O)[C@H](CCCCN)NC(=O)CNC(=O)[C@H](CC(C)C)NC(=O)[C@@H](NC(=O)[C@@H]1CSSC[C@H](N)C(=O)N[C@@H](CO)C(=O)N[C@@H](CC(N)=O)C(=O)N[C@@H](CC(C)C)C(=O)N[C@@H](CO)C(=O)N[C@@H]([C@@H](C)O)C(=O)N1)C(C)C)C(=O)N[C@@H](CO)C(=O)N[C@@H](CCC(N)=O)C(=O)N[C@@H](CCC(=O)O)C(=O)N[C@@H](CC(C)C)C(=O)N[C@@H](Cc1c[nH]cn1)C(=O)N[C@@H](CCCCN)C(=O)N[C@@H](CC(C)C)C(=O)N[C@@H](CCC(N)=O)C(=O)N[C@H](C(=O)N[C@@H](Cc1ccc(O)cc1)C(=O)N1CCC[C@H]1C(=O)N[C@@H](CCCNC(=N)N)C(=O)N[C@H](C(=O)N[C@@H](CC(N)=O)C(=O)N[C@H](C(=O)NCC(=O)N[C@@H](CO)C(=O)NCC(=O)N[C@H](C(=O)N1CCC[C@H]1C(N)=O)[C@@H](C)O)[C@@H](C)O)[C@@H](C)O)[C@@H](C)O` [sCT, Salmon CT], in assay [5], the maximal effect (Emax) was 35%.

As to “human calcitonin (from UniProt P01258 85-116) (peptide)”, in [6], the Emax of cAMP accumulation in SB2b cells (% of forskolin) is 43.

In the case of salmon calcitonin (peptide), in assay [6], the Emax of cAMP accumulation in SB2b cells (% of forskolin) was found to be 35 and the pEC50 of cAMP accumulation (30 min) in SB2b cells is 9.4 pEC50.

Consider αCGRP(8–37) (peptide), for which the shift of the cAMP potency of αCGRP by 1 μM αCGRP(8–37) in PB1, JK2 and WK1 cells; blocks m4 + m8 in [7] amounted to 100 fold.

As for “αCGRP(8–37): CGRP receptor antagonist (VTHRLAGLLSRSGGVVKNNFVPTNVGSKAF; ends and bridges not checked; UniProt P06881 90-119, looked up, fragment)”, the “effect of antagonist on amylin cAMP response” value in [8] and in assay [9] was “abolishing this response” throughout.

B1: adrenomedullin (peptide)
peptide: YRQSMNNFQGLRSFGCRFGTCTVQKLAHQIYQFTDKDKDNVAPRSKISPQGY
As for B1, in assay [7], the pEC50 of cAMP accumulation (30 min) in JK2 cells amounted to 7 pEC50; the pEC50 of cAMP accumulation (30 min) in PB1 cells came to 7.3 pEC50; the pEC50 of cAMP accumulation (30 min) in WK1 cells turned out to be 6.8 pEC50; the pEC50 of cAMP accumulation to AM alone, antagonist experiment, JK2 cells came out at 7.2 pEC50. Moreover, in assay [7], the pEC50 of cAMP accumulation to AM alone, antagonist experiment, PB1 cells is 7.2 pEC50; the pEC50 of cAMP accumulation to AM alone, antagonist experiment, WK1 cells came out at 6.9 pEC50; the pEC50 of cAMP accumulation to AM with 1 μM AM(22–52), JK2 cells amounted to 7.3 pEC50; the pEC50 of cAMP accumulation to AM with 1 μM AM(22–52), PB1 cells is 7.1 pEC50. Moreover, the pEC50 of cAMP accumulation to AM with 1 μM AM(22–52), WK1 cells in [7] amounted to 6.7 pEC50.

As for KCNTATCATQRLANFLVRSSNNLGPVLPPTNVGSNTY [amylin (rAmy)], in [10], the pEC50 of cAMP accumulation (30 min) in JK2 cells is 5.9 pEC50 and the pEC50 of cAMP accumulation (30 min) in PB1 cells was 6.1 pEC50. Moreover, the pEC50 of cAMP accumulation (30 min) in SB2b cells in assay [6] worked out at 6.8 pEC50.

Values taken from publication PMC6379965, “Expression and activity of the calcitonin receptor family in a sample of primary human high-grade gliomas” (BMC Cancer, 2019).
